Reference: US20020098524A1 (published 2002)

target: T1, human (h)TNF-α (human, UniProt P01375 77-233); test: IAsys biosensor, dissociation in 10 mM HEPES/0.05% Tween
T1 construct: Bought purified protein; also called TNF-alpha; Tumor Necrosis Factor α
Protocol: The binding and dissociation of phage clone A1, amino acid sequence: RYWQDIP; Table 1, (SEQ ID NO: 3) to TNF-α was monitored using an lAsys AutoPlus Biosensor following the Labsystems Affinity Sensors lAsys Protocol 2.4 ‘Immobilization to Protein Layer: Thiol coupling to avidin’ (Thermo BioAnalysis Corp. Franklin, Mass.). Two cuvettes were first coated with avidin and one (the control) was then blocked with biotin. This was followed by activation of the lysine groups. A 15 μl aliquot of a 1 mg/ml (h)TNF-α solution was added to each cuvette. […] After blocking and washing, phage clone A1, RYWQDIP (SEQ ID NO: 3) was added to give a final titer of 5×10¹¹ pfu/ml.
The dissociation of the phage from the TNF-α is very slow with the dissociation constant estimated as koff<10⁻⁴ sec⁻¹ (10 mM HEPES/0.05% Tween). Washing with a 1×buffer concentrate (at the 70 min time point) only removed a small portion of the phage.

T1 sequence (P01375 77-233 limits assumed): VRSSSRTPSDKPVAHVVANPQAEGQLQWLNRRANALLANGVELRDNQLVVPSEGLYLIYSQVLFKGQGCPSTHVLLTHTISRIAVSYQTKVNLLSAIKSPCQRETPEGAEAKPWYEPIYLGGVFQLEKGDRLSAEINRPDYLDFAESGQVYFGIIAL

Binder | koff [s⁻¹]
RYWQDIP (also called T1; phage peptide clone A1) [phage clone A1, amino acid sequence RYWQDIP] | < 0.0001

target: T1, human (h)TNF-α; test: phage display selection on hTNF-α-coated tube, PCR of phage still bound after acid wash
Protocol: A thin-walled PCR tube was coated with the target human (h)TNF-α (BioSource International; Camarillo, Calif.) by incubating 100 μl of 0.5 mg/ml purified TNF-α in PBS overnight at 4° C. in the PCR tube. Excess unbound TNF-α was removed, and the tube was coated overnight at 4° C. with 100 μl of SuperBlock™ blocking buffer (Pierce: Rockford, Ill.) in Tris buffered saline (TBS). The anti-target (SuperBlock™ blocking buffer) was prepared in separate PCR tubes coated overnight at 4° C. with 100 μl of SuperBlock™.
Unbound phage were removed by washing the tube 5 times with 150 μl PBS containing 0.1% Tween-20 at room temperature. Low affinity binders were washed away by incubating with 60 μl of 0.2 M Glycine (pH 2.2) for 6 minutes followed by neutralization with 9 μl M Tris-Cl (pH 9.1). The acid washed population was retained for further analysis. The tube was then washed again 3 times with 150 μl of PBS.
This was due to too much template (i.e. phage) in the PCR reaction, and can be alleviated by decreasing the phage concentration or by decreasing the number of PCR cycles (FIG. 3). To decrease the amount of the 500-700 bp diffuse band, the PCR product was diluted appropriately for subsequent PCR reactions from this starting material to generate more products for sub-cloning purposes.

Binder | binding result
APEPILA [T2 (APEPILA)] | binds
LSQPIPI [T14 (LSQPIPI)] | binds
THKNTLR [T10 (THKNTLR)] | binds
WTPKPTQ [T4 (WTPKPTQ)] | binds
ASTVGGL [T6 (ASTVGGL)] | binds
DMIMVSI [T3 (DMIMVSI)] | binds
LTQSFSS [T9 (LTQSFSS)] | binds
ATFPNQS [T5 (ATFPNQS)] | binds
LPILTQT [T12 (LPILTQT)] | binds
TMLPYRP [T7 (TMLPYRP)] | binds
QPLRKLP [T15 (QPLRKLP)] | binds
GQTHFHV [T11 (GQTHFHV)] | binds
SILPVSH [T13 (SILPVSH)] | binds
AWHSPSV [T8 (AWHSPSV)] | binds
